We go through one substance from publication PMC7159994.

For this experiment, the target named is GST-IRP2Δ73 (human) (UniProt P48200). The experiment is described as follows: AlphaScreen or HTRF.

A word on the IC50: it is the concentration at which inhibition is half-maximal. Low values mean greater potency, high ones weaker potency. “FBXL5C492Δ-SKP1 complex (tag-free) (from UniProt Q9UKA1 200-691; P63208 1-163)”: the IC50 worked out at 0.12 nM.
